In patent US20100015058A1 (STANFORD UNIVERSITY, published 2010):
Each block holds one binder with its values, some of them ahead of it.

Columns and labels:
[1] = target: T1, integrin αvβ3 (human, UniProt P06756 31-1048; P05106 27-788); test: competitive binding with ^125I-c(RGDyK) on U87MG cells
T1 construct: whole, on cells; Endogenous receptor on U87MG human glioblastoma cells in the IC50 assays; also called integrin alpha v beta 3; human integrin αvβ3
Description: The best-fit 50% inhibitory concentration (IC₅₀) values were calculated by fitting the data with nonlinear regression using GraphPad Prism (GraphPad Software). Experiments were performed twice with triplicate samples.

[2] = target: T2, gastrin-releasing peptide receptor (GRPR) (human, UniProt P30550 1-384); test: displacement of ^125I-[Tyr^4]BBN from PC-3 cells
T2 construct: whole, on cells; also called GRP receptor

[3] = target: T1, integrin αvβ3; test: competitive displacement of ^125I-echistatin on U87MG cells
Description: (§1) The best-fit 50% inhibitory concentration (IC₅₀) values were calculated by fitting the data with nonlinear regression using Graph-Pad Prism (GraphPad Software, Inc.). Experiments were performed with triplicate samples.

[4] = target: T2, gastrin-releasing peptide receptor …; test: displacement of ^125I-[Tyr^4]BBN from 10^5 PC-3 cells
Description: as §1

[5] = target: T2, gastrin-releasing peptide receptor …; test: competitive binding with 125I-[Tyr4]BBN on PC-3 cells
[6] = target: T1, integrin αvβ3; test: competitive binding with 125I-c(RGDyK) on U87MG cells
[7] = target: T2, gastrin-releasing peptide receptor …; test: competitive binding with 125I-[Tyr4]BBN on PC-3 cells; determined with NOTA-RGD-BBN
[8] = target: T2, gastrin-releasing peptide receptor …; test: displacement of ^125I-[Tyr^4]BBN from PC-3 cells; determined with FB-PEG3-RGD-BBN

T2 sequence (P30550 whole entry): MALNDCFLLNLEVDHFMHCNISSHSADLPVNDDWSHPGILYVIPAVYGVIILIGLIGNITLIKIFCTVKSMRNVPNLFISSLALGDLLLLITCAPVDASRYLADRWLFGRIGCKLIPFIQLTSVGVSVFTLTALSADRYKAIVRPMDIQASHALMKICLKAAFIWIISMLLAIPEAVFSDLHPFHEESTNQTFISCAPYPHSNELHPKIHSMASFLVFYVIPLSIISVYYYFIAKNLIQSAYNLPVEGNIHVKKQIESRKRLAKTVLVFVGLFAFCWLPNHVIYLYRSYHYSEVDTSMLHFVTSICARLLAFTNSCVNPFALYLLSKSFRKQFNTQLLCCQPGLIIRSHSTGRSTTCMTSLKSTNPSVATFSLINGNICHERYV
T1 sequence (P06756 31-1048, chain 1 of 2): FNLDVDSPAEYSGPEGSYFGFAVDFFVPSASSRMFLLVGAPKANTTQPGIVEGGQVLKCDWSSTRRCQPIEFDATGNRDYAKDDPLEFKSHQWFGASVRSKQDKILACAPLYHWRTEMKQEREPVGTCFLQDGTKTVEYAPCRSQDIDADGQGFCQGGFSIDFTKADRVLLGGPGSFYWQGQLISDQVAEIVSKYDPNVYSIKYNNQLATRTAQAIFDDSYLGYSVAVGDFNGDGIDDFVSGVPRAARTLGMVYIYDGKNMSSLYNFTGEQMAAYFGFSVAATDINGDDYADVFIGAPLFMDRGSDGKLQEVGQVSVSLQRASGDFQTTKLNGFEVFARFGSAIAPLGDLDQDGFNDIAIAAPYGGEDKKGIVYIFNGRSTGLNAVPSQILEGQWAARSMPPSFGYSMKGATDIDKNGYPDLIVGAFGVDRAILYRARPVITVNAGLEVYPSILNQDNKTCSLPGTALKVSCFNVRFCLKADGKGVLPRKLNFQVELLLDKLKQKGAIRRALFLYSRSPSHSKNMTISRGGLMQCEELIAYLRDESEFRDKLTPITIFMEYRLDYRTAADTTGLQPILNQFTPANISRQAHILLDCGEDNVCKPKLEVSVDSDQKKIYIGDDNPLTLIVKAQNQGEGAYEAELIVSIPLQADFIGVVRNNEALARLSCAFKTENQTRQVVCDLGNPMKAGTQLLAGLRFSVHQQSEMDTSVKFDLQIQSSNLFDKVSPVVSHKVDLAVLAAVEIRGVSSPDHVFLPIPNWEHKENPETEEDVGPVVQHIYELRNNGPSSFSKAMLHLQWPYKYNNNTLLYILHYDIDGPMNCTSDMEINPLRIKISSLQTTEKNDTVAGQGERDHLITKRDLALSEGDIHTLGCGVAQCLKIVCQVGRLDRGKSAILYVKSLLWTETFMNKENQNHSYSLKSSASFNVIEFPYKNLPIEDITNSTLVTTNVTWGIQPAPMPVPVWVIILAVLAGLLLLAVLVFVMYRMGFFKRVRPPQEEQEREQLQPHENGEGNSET
T1 sequence (P05106 27-788, chain 2 of 2): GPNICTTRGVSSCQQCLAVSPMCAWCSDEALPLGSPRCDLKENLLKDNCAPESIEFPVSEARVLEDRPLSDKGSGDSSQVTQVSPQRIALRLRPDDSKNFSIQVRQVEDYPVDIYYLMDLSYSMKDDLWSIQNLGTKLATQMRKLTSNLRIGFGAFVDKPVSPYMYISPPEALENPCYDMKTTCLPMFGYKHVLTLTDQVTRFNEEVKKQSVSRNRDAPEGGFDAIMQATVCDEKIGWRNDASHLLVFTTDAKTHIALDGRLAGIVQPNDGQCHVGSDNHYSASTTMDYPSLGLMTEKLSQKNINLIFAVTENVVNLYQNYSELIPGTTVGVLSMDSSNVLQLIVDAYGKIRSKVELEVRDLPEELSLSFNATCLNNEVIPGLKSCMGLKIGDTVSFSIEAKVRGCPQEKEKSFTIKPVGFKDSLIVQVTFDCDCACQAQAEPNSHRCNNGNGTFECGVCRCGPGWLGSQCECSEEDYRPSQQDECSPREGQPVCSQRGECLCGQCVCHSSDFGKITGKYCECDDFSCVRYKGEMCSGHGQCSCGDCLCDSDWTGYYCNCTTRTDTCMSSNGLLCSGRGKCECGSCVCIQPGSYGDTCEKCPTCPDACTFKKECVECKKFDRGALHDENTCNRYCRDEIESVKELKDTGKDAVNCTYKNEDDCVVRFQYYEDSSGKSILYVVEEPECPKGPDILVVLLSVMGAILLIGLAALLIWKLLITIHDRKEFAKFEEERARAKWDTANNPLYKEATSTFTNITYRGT

B3: FB-NH-Glu-BBN(7-14)-c(RGDyK) (FB-BBN-RGD) (peptide)
peptide 1: RGDYK
peptide 2: EQWAVGHLM
modifications: 4-fluorobenzoyl (FB) on the Glu amino group; Aca between Glu and Gln; C-terminal amide (Met-NH2); cyclic (cyclo); D-Tyr at position 4; Lys joined to one carboxylate of the Glu linker
notes: non-radioactive FB form used in the IC50 assays; also called ^18F-FB-BBN-RGD
IC50 [3]: 282 nM
IC50 [4]: 32 nM

B4: DOTA-RGD-BBN (VIII) (peptide)
peptide 1: RGDYK
peptide 2: EQWAVGHLM
modifications: not fully specified; DOTA (from DOTA-OSSu) on the amine of RGD-bombesin; Aca between Glu and Gln; C-terminal amide (Met-NH2); cyclic (cyclo); D-Tyr at position 4; Lys side chain joined to the Glu linker
notes: also called DOTA-RGD-bombesin; ^64Cu-DOTA-RGD-BBN
IC50 [5]: 85.8 nM
IC50 [6]: 21.6 nM

B6: FB-PEG3-Glu-RGD-BBN (peptide)
peptide 1: RGDYK
peptide 2: EQWAVGHLM
modifications: 4-fluorobenzoyl (FB) on the amino group of the PEG3 spacer (11-amino-3,6,9-trioxaundecanoic acid), PEG3 on the Glu amino group; Glu γ-carboxylate joined to Aca; Aca between Glu and Gln; C-terminal amide (Met-NH2); cyclic (cyclo); D-Tyr at position 4; Lys side chain ε-amine joined to the α-carboxylate of Glu
notes: also called FB-PEG3-RGD-BBN; ^18F-FB-PEG3-Glu-RGD-BBN
IC50 [8]: 73.3 nM

The remaining lines, values ahead:

IC50 [1]: 17.9 nM
IC50 [2]: 67.9 nM
B1: RGD-BBN, cyclo(Arg-Gly-Asp-D-Tyr-Lys)-Glu-(Aca-Gln-Trp-Ala-Val-Gly-His-Leu-Met-NH2) (peptide)
peptide 1: RGDYK
peptide 2: EQWAVGHLM
modifications: free amino group on Glu; Glu side-chain carboxylate joined to Aca; Aca between Glu and Gln; C-terminal amide (Met-NH2); cyclic (cyclo); D-Tyr at position 4; Lys side chain ε-amine joined to the α-carboxylate of Glu
notes: also called Glu-RGD-BBN; RGD-bombesin

IC50 [3]: 428 nM
IC50 [4]: 35.7 nM
B2: NH2-Glu-BBN(7-14)-c(RGDyK) (BBN-RGD) (peptide)
peptide 1: RGDYK
peptide 2: EQWAVGHLM
modifications: free amino group on Glu; Aca between Glu and Gln; C-terminal amide (Met-NH2); cyclic (cyclo); D-Tyr at position 4; Lys joined to one carboxylate of the Glu linker
notes: also called heterodimer BBN-RGD; BBN-RGD heterodimeric construct

binding result [1]: no binding
Binder: Aca-QWAVGHLM-NH2 (also called BBN monomer; cold BBN) [Aca-BBN(7-14), Aca-Gln-Trp-Ala-Val-Gly-His-Leu-Met-NH2]

IC50 [2]: 55.9 nM
IC50 [7]: 92.8 nM
B5: NOTA-RGD-BBN (VII) (peptide)
peptide 1: RGDYK
peptide 2: EQWAVGHLM
modifications: NOTA (from p-SCN-Bn-NOTA, SCN-amine reaction) on the amine of RGD-BBN; Aca between Glu and Gln; C-terminal amide (Met-NH2); cyclic (cyclo); D-Tyr at position 4; Lys side chain joined to the Glu …
notes: also called NOTA-RGD-bombesin; ^64Cu-NOTA-RGD-BBN

IC50 [2]: 85.5 nM
B7: PEG3-Glu-RGD-BBN (peptide)
peptide 1: RGDYK
peptide 2: EQWAVGHLM
modifications: not fully specified; PEG3 (11-amino-3,6,9-trioxaundecanoic acid) on the Glu amino group; Glu γ-carboxylate joined to Aca; Aca between Glu and Gln; C-terminal amide (Met-NH2); cyclic (cyclo); D-Tyr at position 4; Lys side chain ε-amine joined to the α-carboxylate of Glu
notes: also called PEG3-RGD-BBN
